What is called Kd is a measure of binding affinity in units of concentration. A higher Kd goes with weaker binding. The IC50 is the concentration at which inhibition is half-maximal. Lower therefore signals inhibition by little substance.

For assay [1], the target named is T1, hIL-18Rα-hFc fusion protein (human, UniProt Q13478 19-329, limits assumed).
T1 construct: also called IL-18R1-hFc; not shown: human Fc
T1 sequence: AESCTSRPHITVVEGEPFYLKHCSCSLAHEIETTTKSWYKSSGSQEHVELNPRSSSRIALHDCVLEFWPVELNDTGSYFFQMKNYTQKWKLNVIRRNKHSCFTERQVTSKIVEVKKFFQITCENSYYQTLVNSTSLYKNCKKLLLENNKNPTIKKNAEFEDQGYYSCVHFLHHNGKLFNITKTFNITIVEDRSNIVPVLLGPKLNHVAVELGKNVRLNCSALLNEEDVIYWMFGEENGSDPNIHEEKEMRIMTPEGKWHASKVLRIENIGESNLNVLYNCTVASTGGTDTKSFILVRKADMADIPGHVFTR
Kind of assay: SPR (BIAcore), antibody from conditioned medium captured on anti-mouse IgG, hIL-18Rα-hFc in solution. As for the experimental part: The KD of the antigen binding to the selected antibodies described above were determined by surface kinetics on a real-time biosensor surface plasmon resonance assay (BIAcore™). The antibody derived from hybridoma was captured on an anti-mouse IgG surface and exposed to various concentrations of hIL-18Rα-hFc fusion protein. Kinetic analysis using evaluation software was performed to obtain the association and dissociation rate constants.
For orientation: Surface plasmon resonance follows binding to a sensor surface in real time, without labels.

Assay [2] concerns the target T2, human interleukin-18 receptor alpha (hIL-18Rα) on cells (human, UniProt Q13478 19-541).
T2 sequence: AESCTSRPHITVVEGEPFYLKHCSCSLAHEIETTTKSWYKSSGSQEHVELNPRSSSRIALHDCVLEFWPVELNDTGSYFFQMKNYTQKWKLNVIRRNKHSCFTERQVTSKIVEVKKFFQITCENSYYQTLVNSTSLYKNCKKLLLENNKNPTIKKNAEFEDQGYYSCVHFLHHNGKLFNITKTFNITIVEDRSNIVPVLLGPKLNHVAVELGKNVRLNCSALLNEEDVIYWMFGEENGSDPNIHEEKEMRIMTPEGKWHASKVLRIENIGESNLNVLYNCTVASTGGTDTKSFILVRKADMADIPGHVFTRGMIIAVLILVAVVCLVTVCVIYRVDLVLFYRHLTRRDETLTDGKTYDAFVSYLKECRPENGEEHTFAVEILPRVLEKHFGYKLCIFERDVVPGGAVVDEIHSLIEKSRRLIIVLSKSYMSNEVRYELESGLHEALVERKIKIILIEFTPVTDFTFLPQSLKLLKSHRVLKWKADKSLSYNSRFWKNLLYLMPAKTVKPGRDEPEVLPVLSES
Kind of assay: cell-based or functional assay.

Assay [3] deals with T1, hIL-18Rα-hFc fusion protein. Kind of assay: ELISA solution affinity: antibody premixed with serial dilutions of hIL-18Rα-hFc, free antibody caught on hIL-18Rα-hFc-coated plate. As for the experimental part:
Binding affinity of the antibodies to antigen were also measured using a immunoassay. Antibodies were characterize from hybridoma conditioned medium or as purified protein. Protein was purified after hybridoma cells were grown in low IgG medium and affinity purified using Protein G. IC₅₀ of antigen binding was determined with an ELISA-based assay. Briefly, constant amounts of antibody at different levels, either in hybridoma conditioned medium or purified, were premixed with serial dilutions of antigen protein, hIL-18Rα-hFc, ranging from 0 to 10 mg/ml, and incubated for two hours at room temperature to reach pseudo-binding equilibrium between the antibody and antigen. These solutions were then transferred to 96-well hIL-18Rα-hFc pre-coated plates (solid phase) to allow the free-antibody in the mixtures to bind to plate-coated hIL-18Rα-hFc. […] After washing off excess antibody in solution, the plate-bound antibodies were detected with an HRP-conjugated goat anti-mouse IgG polyclonal antibody reagent and developed using either colorimetric or chemiluminescent substrates. The dependency of the signals on the concentrations of antigen in solution was analyzed with a 4 parameter fit analysis using Prism™ software from Graph Pad™ and reported as IC₅₀ that render 50% reduction of antibody binding to plate-coated antigen.
For orientation: An ELISA detects its analyte on a solid surface through an enzyme-linked reagent.

The target of assay [4] is T3, monomeric receptor, hIL18Rα-hIL-18Rb-myc-myc-his (human, UniProt O95256 20-356, limits assumed).
T3 construct: Construct known only by its name; also called monomeric antigen; monomeric hIL-18Rα; not shown: myc-myc-his tag
T3 sequence: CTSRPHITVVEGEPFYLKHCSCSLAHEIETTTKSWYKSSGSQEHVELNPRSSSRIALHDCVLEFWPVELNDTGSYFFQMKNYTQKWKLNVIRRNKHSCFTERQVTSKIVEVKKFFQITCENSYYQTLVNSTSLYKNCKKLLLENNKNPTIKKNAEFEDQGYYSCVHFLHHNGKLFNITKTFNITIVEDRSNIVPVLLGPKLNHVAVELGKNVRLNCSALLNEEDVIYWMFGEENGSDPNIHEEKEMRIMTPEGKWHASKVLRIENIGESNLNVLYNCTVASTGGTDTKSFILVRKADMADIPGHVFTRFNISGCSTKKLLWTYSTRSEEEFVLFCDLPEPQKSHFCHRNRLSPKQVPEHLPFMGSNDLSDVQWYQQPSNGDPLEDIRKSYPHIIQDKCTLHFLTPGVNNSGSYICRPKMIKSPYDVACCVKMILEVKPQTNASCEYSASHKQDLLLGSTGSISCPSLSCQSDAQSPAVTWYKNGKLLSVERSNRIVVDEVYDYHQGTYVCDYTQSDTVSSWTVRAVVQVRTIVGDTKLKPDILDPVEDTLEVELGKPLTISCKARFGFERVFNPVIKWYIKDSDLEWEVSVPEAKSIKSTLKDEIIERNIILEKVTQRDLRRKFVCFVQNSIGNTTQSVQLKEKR
Kind of assay: SPR (BIAcore), mAb from CHO conditioned medium captured on anti-human IgG, monomeric receptor 50-12.5 nM, 1:1 model. As for the experimental part:
(§1) Both mouse IgG1 and human IgG4 versions of the derived antibody were measured to determine KD for monomeric antigen using BIAcore™ (Table 2). Binding affinity of monomeric receptor was measured by capturing mAb from subclone hybridoma supernatant and CHO conditioned media over amine coupled anti-mouse IgG and anti-human IgG. […] Data were processed and analyzed using a 1:1 binding model and KD values were calculated.

Assay [5] deals with T3, monomeric receptor, …. Kind of assay: SPR (BIAcore), mAb from subclone hybridoma supernatant captured on anti-mouse IgG, monomeric receptor 50-12.5 nM, 1:1 model. As for the experimental part:
as §1

B1: VH1F9 (antibody, V domains shown)
VH: QVQLVQSGAEVKKPGASVRVSCKASGYTFTSYDINWVRQATGQGLEYMGWMNPNSGNTGYAQKFQGRVSLTRDTSISTAYMDLNSLRSEDTAVYYCTTPGDKWNYEYFQFWGQGTLVTVSS
VL: DIQMTQSPSSVSASVGDRVTITCRASQHISIWLAWYQQKPGKAPKLLILSASSLLSGVPSRFSGSGSGTDFALTVSSLQPEDFATYYCQQANSFPSFGPGTKVEIK
notes: Hybridoma-derived chimeric IgG: human variable regions, mouse constant regions
Turning to B1, the Kd in assay [1] stood at 0.135 nM. Also, in assay [2], the “KG-1 Bioassay (IC50 nM)” value came out at 0.085 nM and the “Luciferase Bioassay (IC50 nM)” value amounted to 0.653 nM. This molecule also showed an IC50 in assay [3] of 0.026 nM.

B2: VH1F9-18, human IgG4 (antibody, V domains shown)
VH: QVQLVQSGAEVKKPGASVRVSCKASGYTFTSYDINWVRQATGQGLEYMGWMNPNSGNTGYAQKFQGRVSLTRDTSISTAYMDLNSLRSEDTAVYYCTTPGDKWNYEYFQFWGQGTLVTVSS
VL: DIQMTQSPSSVSASVGDRVTITCRASQHISIWLAWYQQKPGKAPKLLILSASSLLSGVPSRFSGSGSGTDFALTVSSLQPEDFATYYCQQANSFPSFGPGTKVEIK
notes: Fully human IgG4 version from CHO conditioned medium
As to B2, binding in assay [4] was put at a Kd of 6 nM.

B3: VH1F9-18, mouse IgG1 (antibody, V domains shown)
VH: QVQLVQSGAEVKKPGASVRVSCKASGYTFTSYDINWVRQATGQGLEYMGWMNPNSGNTGYAQKFQGRVSLTRDTSISTAYMDLNSLRSEDTAVYYCTTPGDKWNYEYFQFWGQGTLVTVSS
VL: DIQMTQSPSSVSASVGDRVTITCRASQHISIWLAWYQQKPGKAPKLLILSASSLLSGVPSRFSGSGSGTDFALTVSSLQPEDFATYYCQQANSFPSFGPGTKVEIK
notes: Chimeric: human variable, mouse IgG1 constant; from subclone hybridoma supernatant; subclone -18 of VH1F9
For B3, binding in assay [5] was characterised by a dissociation constant (Kd) of 6.81 nM.

The values above are taken from patent US20070237776A1 (Regeneron, published 2007).
